Data on 2 molecules can be found in paper PMC9242591 (Science Advances, 2022).

In data set [1] the target is T1, His-tagged NIN-LIKE PROTEIN 7 (His-NLP7) (Arabidopsis thaliana, UniProt Q84TH9 1-959).
T1 sequence (looked up): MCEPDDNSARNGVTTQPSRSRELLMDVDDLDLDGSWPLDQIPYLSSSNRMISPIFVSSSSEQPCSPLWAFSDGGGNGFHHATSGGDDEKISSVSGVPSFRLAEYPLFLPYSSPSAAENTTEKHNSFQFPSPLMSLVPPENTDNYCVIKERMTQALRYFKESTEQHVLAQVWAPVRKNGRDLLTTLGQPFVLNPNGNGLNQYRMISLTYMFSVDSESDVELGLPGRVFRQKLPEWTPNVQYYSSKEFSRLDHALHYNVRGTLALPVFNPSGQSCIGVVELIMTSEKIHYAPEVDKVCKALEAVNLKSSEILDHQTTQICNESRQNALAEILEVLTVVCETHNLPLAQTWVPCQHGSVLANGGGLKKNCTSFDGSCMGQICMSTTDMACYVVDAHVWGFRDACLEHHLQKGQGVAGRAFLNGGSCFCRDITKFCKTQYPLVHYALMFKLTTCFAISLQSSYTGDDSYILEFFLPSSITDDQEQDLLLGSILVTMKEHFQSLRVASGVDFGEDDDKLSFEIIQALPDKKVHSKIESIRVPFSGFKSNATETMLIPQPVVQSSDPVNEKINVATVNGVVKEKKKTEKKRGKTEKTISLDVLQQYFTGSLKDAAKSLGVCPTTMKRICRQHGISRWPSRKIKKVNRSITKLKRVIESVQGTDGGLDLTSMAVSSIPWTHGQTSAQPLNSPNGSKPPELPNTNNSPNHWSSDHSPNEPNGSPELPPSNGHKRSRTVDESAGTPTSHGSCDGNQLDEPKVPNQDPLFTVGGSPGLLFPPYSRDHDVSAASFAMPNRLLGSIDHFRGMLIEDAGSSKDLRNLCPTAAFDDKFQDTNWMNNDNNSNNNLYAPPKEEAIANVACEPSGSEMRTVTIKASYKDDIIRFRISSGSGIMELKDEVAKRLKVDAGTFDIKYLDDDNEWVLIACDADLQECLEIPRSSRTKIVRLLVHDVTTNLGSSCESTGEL
Kind of data set: pull-down.

The target in the next data set is His-NLP7 (RWP-RK) (Arabidopsis thaliana, UniProt Q84TH9 535-733). Put plainly: EMSA. In general terms: Mobility shift assays separate free from complexed probe on a gel.

B1: GST-tagged CALCIUM-DEPENDENT PROTEIN KINASE 28 (GST-CPK28) (enzyme, Arabidopsis thaliana, UniProt Q9FKW4 1-523, looked up)
chain: MGVCFSAIRVTGASSSRRSSQTKSKAAPTPIDTKASTKRRTGSIPCGKRTDFGYSKDFHDHYTIGKLLGHGQFGYTYVAIHRPNGDRVAVKRLDKSKMVLPIAVEDVKREVQILIALSGHENVVQFHNAFEDDDYVYIVMELCEGGELLDRILSKKGNRYSEKDAAVVVRQMLKVAGECHLHGLVHRDMKPENFLFKSAQLDSPLKATDFGLSDFIKPGKRFHDIVGSAYYVAPEVLKRRSGPESDVWSIGVITYILLCGRRPFWDRTEDGIFKEVLRNKPDFSRKPWATISDSAKDFVKKLLVKDPRARLTAAQALSHAWVREGGNATDIPVDISVLNNLRQFVRYSRLKQFALRALASTLDEAEISDLRDQFDAIDVDKNGVISLEEMRQALAKDLPWKLKDSRVAEILEAIDSNTDGLVDFTEFVAAALHVHQLEEHDSEKWQLRSRAAFEKFDLDKDGYITPEELRMHTGLRGSIDPLLDEADIDRDGKISLHEFRRLLRTASISSQRAPSPAGHRNLR
Regarding B1, the binding result in data set [1] is reported as “binds”.

B2: CBF1-NREL probe (dsDNA)
DNA 1: AAAAGTCTCTTTACAAGGGTCAAA
DNA 2: TTTGACCCTTGTAAAGAGACTTTT
Regarding B2, the binding result in the data set with His-NLP7 (RWP-RK) is reported as “binds”.
